# Laboratory results as given in patent US20090099029A1, “Methods and substrates for conducting assays” (Invitrogen Corporation, priority 2005, published 2009).
# B1: FLT3 (protein)
# chain: HKYKKQFRYESQLQMVQVTGSSDNEYFYVDFREYEYDLKWEFPRENLEFGKVLGSGAFGKVMNATAYGISKTGVSIQVAVKMLKEKADSSEREALMSELKMMTQLGSHENIVNLLGACTLSGPIYLIFEYCCYGDLLNYLRSKREKFHRTWTEIFKEHNFSFYPTFQSHPNSSMPGSREVQIHPDSDQISGLHGNSFHSEDEIEYENQKRLEEEEDLNVLTFEDLLCFAYQVAKGMEFLEFKSCVHRDLAARNVLVTHGKVVKICDFGLARDIMSDSNYVVRGNARLPVKWMAPESLFEGIYTIKSDVWSYGILLWEIFSLGVNPYPGIPVDANFYKLIQNGFKMDQPFYATEEIYIIMQSCWAFDSRKRPSFPNLTSFLGCQLADAEEAMYQNVDGRVSECPHTYQNRRPFSREMDLGLLSPQAQVEDS
# modifications: left off: small tags and cut ends
# B2: FGFR2 (protein)
# chain: RMKNTTKKPDFSSQPAVHKLTKRIPLRRQVTVSAESSSSMNSNTPLVRITTRLSSTADTPMLAGVSEYELPEDPKWEFPRDKLTLGKPLGEGCFGQVVMAEAVGIDKDKPKEAVTVAVKMLKDDATEKDLSDLVSEMEMMKMIGKHKNIINLLGACTQDGPLYVIVEYASKGNLREYLRARRPPGMEYSYDINRVPEEQMTFKDLVSCTYQLARGMEYLASQKCIHRDLAARNVLVTENNVMKIADFGLARDINNIDYYKKTTNGRLPVKWMAPEALFDRVYTHQSDVWSFGVLMWEIFTLGGSPYPGIPVEELFKLLKEGHRMDKPANCTNELYMMMRDCWHAVPSQRPTFKQLVEDLDRILTLTTNEEYLDLSQPLEQYSPSYPDTRSSCSSGDDSVFSPDPMPYEPCLPQYPHINGSVKT
# modifications: left off: small tags and cut ends
# B3: IGF1R (protein)
# chain: RKRNNSRLGNGVLYASVNPEYFSAADVYVPDEWEVAREKITMSRELGQGSFGMVYEGVAKGVVKDEPETRVAIKTVNEAASMRERIEFLNEASVMKEFNCHHVVRLLGVVSQGQPTLVIMELMTRGDLKSYLRSLRPEMENNPVLAPPSLSKMIQMAGEIADGMAYLNANKFVHRDLAARNCMVAEDFTVKIGDFGMTRDIYETDYYRKGGKGLLPVRWMSPESLKDGVFTTYSDVWSFGVVLWEIATLAEQPYQGLSNEQVLRFVMEGGLLDKPDNCPDMLFELMRMCWQYNPKMRPSFLEIISSIKEEMEPGFREVSFYYSEENKLPEPEELDLEPENMESVPLDPSASSSSLPLPDRHSGHKAENGPGPGVLVLRASFDERQPYAHMNGGRKNERALPLPQSSTC
# modifications: left off: small tags and cut ends
# B4: FLT1(VEGFR1) (protein)
# chain: RKMKRSSSEIKTDYLSIIMDPDEVPLDEQCERLPYDASKWEFARERLKLGKSLGRGAFGKVVQASAFGIKKSPTCRTVAVKMLKEGATASEYKALMTELKILTHIGHHLNVVNLLGACTKQGGPLMVIVEYCKYGNLSNYLKSKRDLFFLNKDAALHMEPKKEKMEPGLEQGKKPRLDSVTSSESFASSGFQEDKSLSDVEEEEDSDGFYKEPITMEDLISYSFQVARGMEFLSSRKCIHRDLAARNILLSENNVVKICDFGLARDIYKNPDYVRKGDTRLPLKWMAPESIFDKIYSTKSDVWSYGVLLWEIFSLGGSPYPGVQMDEDFCSRLREGMRMRAPEYSTPEIYQIMLDCWHRDPKERPRFAELVEKLGDLLQANVQQDGKDYIPINAILTGNSGFTYSTPAFSEDFFKESISAPKFNSGSSDDVRYVNAFKFMSLERIKTFEELLPNATSMFDDYQGDSSTLLASPMLKRFTWTDSKPKASLKIDLRVTSKSKESGLSDVSRPSFCHSSCGHVSEGKRRFTYDHAELERKIACCSPPPDYNSVVLYSTPPI
# modifications: left off: a dimerising Fc or GST
# B5: FGFR4 (protein)
# chain: RGQALHGRHPRPPATVQKLSRFPLARQFSLESGSSGKSSSSLVRGVRLSSSGPALLAGLVSLDLPLDPLWEFPRDRLVLGKPLGEGCFGQVVRAEAFGMDPARPDQASTVAVKMLKDNASDKDLADLVSEMEVMKLIGRHKNIINLLGVCTQEGPLYVIVECAAKGNLREFLRARRPPGPDLSPDGPRSSEGPLSFPVLVSCAYQVARGMQYLESRKCIHRDLAARNVLVTEDNVMKIADFGLARGVHHIDYYKKTSNGRLPVKWMAPEALFDRVYTHQSDVWSFGILLWEIFTLGGSPYPGIPVEELFSLLREGHRMDRPPHCPPELYGLMRECWHAAPSQRPTFKQLVEALDKVLLAVSEEYLDLRLTFGPYSPSGGDASSTCSSSDSVFSHDPLPLGSSSFPFGSGVQT
# modifications: left off: small tags and cut ends
# B6: FGFR3 (protein)
# chain: RLRSPPKKGLGSPTVHKISRFPLKRQVSLESNASMSSNTPLVRIARLSSGEGPTLANVSELELPADPKWELSRARLTLGKPLGEGCFGQVVMAEAIGIDKDRAAKPVTVAVKMLKDDATDKDLSDLVSEMEMMKMIGKHKNIINLLGACTQGGPLYVLVEYAAKGNLREFLRARRPPGLDYSFDTCKPPEEQLTFKDLVSCAYQVARGMEYLASQKCIHRDLAARNVLVTEDNVMKIADFGLARDVHNLDYYKKTTNGRLPVKWMAPEALFDRVYTHQSDVWSFGVLLWEIFTLGGSPYPGIPVEELFKLLKEGHRMDKPANCTHDLYMIMRECWHAAPSQRPTFKQLVEDLDRVLTVTSTDEYLDLSAPFEQYSPGGQDTPSSSSSGDDSVFAHDLLPPAPPSSGGSRT
# modifications: left off: small tags and cut ends
# B7: INSRR (protein)
# chain: YGKKRNRTLYASVNPEYFSASDMYVPDEWEVPREQISIIRELGQGSFGMVYEGLARGLEAGEESTPVALKTVNELASPRECIEFLKEASVMKAFKCHHVVRLLGVVSQGQPTLVIMELMTRGDLKSHLRSLRPEAENNPGLPQPALGEMIQMAGEIADGMAYLAANKFVHRDLAARNCMVSQDFTVKIGDFGMTRDVYETDYYRKGGKGLLPVRWMAPESLKDGIFTTHSDVWSFGVVLWEIVTLAEQPYQGLSNEQVLKFVMDGGVLEELEGCPLQLQELMSRCWQPNPRLRPSFTHILDSIQEELRPSFRLLSFYYSPECRGARGSLPTTDAEPDSSPTPRDCSPQNGGPGH
# modifications: left off: a dimerising Fc or GST
# B8: TTK (protein)
# chain: MESEDLSGRELTIDSIMNKVRDIKNKFKNEDLTDELSLNKISADTTDNSGTVNQIMMMANNPEDWLSLLLKLEKNSVPLSDALLNKLIGRYSQAIEALPPDKYGQNESFARIQVRFAELKAIQEPDDARDYFQMARANCKKFAFVHISFAQFELSQGNVKKSKQLLQKAVERGAVPLEMLEIALRNLNLQKKQLLSEEEKKNLSASTVLTAQESFSGSLGHLQNRNNSCDSRGQTTKARFLYGENMPPQDAEIGYRNSLRQTNKTKQSCPFGRVPVNLLNSPDCDVKTDDSVVPCFMKRQTSRSECRDLVVPGSKPSGNDSCELRNLKSVQNSHFKEPLVSDEKSSELIITDSITLKNKTESSLLAKLEETKEYQEPEVPESNQKQWQSKRKSECINQNPAASSNHWQIPELARKVNTEQKHTTFEQPVFSVSKQSPPISTSKWFDPKSICKTPSSNTLDDYMSCFRTPVVKNDFPPACQLSTPYGQPACFQQQQHQILATPLQNLQVLASSSANECISVKGRIYSILKQIGSGGSSKVFQVLNEKKQIYAIKYVNLEEADNQTLDSYRNEIAYLNKLQQHSDKIIRLYDYEITDQYIYMVMECGNIDLNSWLKKKKSIDPWERKSYWKNMLEAVHTIHQHGIVHSDLKPANFLIVDGMLKLIDFGIANQMQPDTTSVVKDSQVGTVNYMPPEAIKDMSSSRENGKSKSKISPKSDVWSLGCILYYMTYGKTPFQQIINQISKLHAIIDPNHEIEFPDIPEKDLQDVLKCCLKRDPKQRISIPELLAHPYVQIQTHPVNQMAKGTTEEMKYVLGQLVGLNSPNSILKAAKTLYEHYSGGESHNSSSSKTFEKKRGKK
# modifications: left off: a dimerising Fc or GST
# Test system: kinases of Table 6 on Myelin Basic Protein (MBP)
# Assay: Kinase assay using MBP substrate, ProQ Diamond stain (Table 6)
# Format: biochemical
# Details: kinase printed on MBP-coated slide; 20 uM ATP, 30° C.; ProQ Diamond Microarray Stain; graded Strong/Weak/Negative
# In short: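 Bovine dephosphorylated MBP coated on aldehyde- or epoxy-glass slides, kinases printed on top; reaction buffer pH 7.5 with 4 mM MgCl2, 20 uM ATP, 5% DMSO, ± inhibitor, at 30° C. Phosphorylation detected by ProQ Diamond stain, 30 min in dark.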
row,Molecule,MBP Kinase Activity
1,B1,Strong
2,B2,Strong
3,B3,Strong
4,B4,Strong
5,B5,Strong
6,B6,Strong
7,B7,Negative
8,B8,Negative
